Experimental data from US20220305006.

Biological target: recombinant sAPPα, human, amino acids 19-613 (UniProt P05067)
Sequence (P05067 19-613): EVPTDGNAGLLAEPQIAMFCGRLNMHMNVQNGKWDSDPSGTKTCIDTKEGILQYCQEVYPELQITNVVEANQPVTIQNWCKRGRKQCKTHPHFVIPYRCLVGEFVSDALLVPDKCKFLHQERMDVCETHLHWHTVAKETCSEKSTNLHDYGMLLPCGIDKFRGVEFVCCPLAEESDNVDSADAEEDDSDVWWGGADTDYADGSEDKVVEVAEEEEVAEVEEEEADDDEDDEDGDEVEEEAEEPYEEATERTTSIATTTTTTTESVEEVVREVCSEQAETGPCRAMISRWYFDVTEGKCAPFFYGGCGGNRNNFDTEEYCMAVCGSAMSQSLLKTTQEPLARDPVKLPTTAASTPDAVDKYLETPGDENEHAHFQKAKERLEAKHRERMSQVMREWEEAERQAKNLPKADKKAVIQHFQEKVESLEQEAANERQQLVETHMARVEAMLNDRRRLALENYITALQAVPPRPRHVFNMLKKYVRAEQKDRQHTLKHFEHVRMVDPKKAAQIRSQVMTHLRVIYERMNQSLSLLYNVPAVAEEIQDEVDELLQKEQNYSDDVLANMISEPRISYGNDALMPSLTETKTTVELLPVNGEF

Chain of Recombinant Human Cathepsin D (chain, as listed by the source): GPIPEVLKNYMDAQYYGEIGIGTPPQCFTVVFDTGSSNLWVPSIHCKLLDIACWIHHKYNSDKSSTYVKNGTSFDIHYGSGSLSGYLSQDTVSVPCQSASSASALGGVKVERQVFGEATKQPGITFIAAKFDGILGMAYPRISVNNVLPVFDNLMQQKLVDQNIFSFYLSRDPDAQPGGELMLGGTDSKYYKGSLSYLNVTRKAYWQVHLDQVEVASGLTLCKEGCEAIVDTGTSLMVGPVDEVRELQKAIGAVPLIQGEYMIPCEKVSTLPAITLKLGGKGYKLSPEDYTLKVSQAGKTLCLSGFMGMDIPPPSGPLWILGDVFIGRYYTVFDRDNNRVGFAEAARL

Substance: Recombinant Human Cathepsin D
- Cat D activity (fluorogenic substrate): sAPPα elicited no inhibition of Cat D activity
